In patent US7183092B2, “Modified luciferase” (priority 2003, dated 2007):
“Also recorded” adds a separate entry of the source.

What was measured:
[1] = Quantitative in vitro screening of mutant luciferases with chloroform; format: biochemical, Photinus pyralis; conditions: screening; 68.8 mM chloroform (0.8% vol.), 10% ethanol, 33 mM DTT, cell lysate supernatant
Description: Selected colonies from secondary screening were inoculated and grown in 5 ml LB broth containing 100 μg/ml ampicillin at 30° C. overnight. When the OD660 reached approximately 1, bacterial cells were harvested from 1.5 ml of culture by centrifugation for 3 min at 12,000 rpm (Eppendorf centrifuge model 5415D). Harvested cells were resuspended in 1 ml of 40 mM Tris-Acetate buffer, pH 7.8, and sonicated for 10 seconds using a Branson Sonifer 450, Duty cycle-40 and output control-4. The activity of each luciferase sample, prepared using 10 μl of supernatant from a subsequent centrifugation of sonicated bacterial cell culture, was tested in 200 μl total reaction volume by a Luminometer (Perkin Elmer, model Victor II). Each assay contained 40 mM Tris-Acetate, 1 mM MgSO4, 0.1 mM EDTA (ethylenediaminetetraacetic acid), 33 mM DTT (dithiothreitol), 500 μM D-Luciferin, 10% Ethanol and 500 μM ATP at pH 7.8. Some screening assays also contained 68.8 mM chloroform (0.8% vol.).
Different mutant luciferases were compared quantitatively by determining the percentage (%) inhibition of luciferase activity in the presence of chloroform relative to a control without chloroform. The specific activities of chloroform-tolerant mutants were generally lower as compared to wild type. […] The nucleotide sequence of CNBLuc03-02 is SEQ ID No: 1. The polypeptide sequence of the product of SEQ ID No: 1 is SEQ ID No: 2.

[2] = Luciferase activity in the presence of nonionic detergent Triton X-100; format: biochemical, Photinus pyralis; conditions: FIG. 4; Triton X-100 up to 5%, 20 ng purified luciferase, 0% ethanol, 33 mM DTT
Description: (§1) The stability of CNBLuc03-06 luciferase (SEQ ID NO: 4), both in purified form and in cell lysates, in the presence of a range of potential inhibitors was assayed. The basic assay contained 40 mM Tris-Acetate at pH 7.8, 1 mM MgSO4, 0.1 mM EDTA (ethylenediaminetetraacetic acid), 500 μM D-Luciferin and 500 μM ATP. Ethanol, DTT (dithiothreitol) and potential inhibitors were included at the concentrations stated.
(§2) The stability of CNBLuc03-06 luciferase (SEQ ID NO: 4) in the presence of Triton X-100 and SDS was determined using 20 ng of purified luciferase per sample using the basic assay conditions and in the presence of 0% ethanol and 33 mM DTT. The effect of detergents on wild type luciferase was determined previously by W. J. Simpson and J. R. M. Hammond (W. J. Simpson and J. R. M. Hammond, (1991) Journal of Bioluminescence & Chemiluminescence, 6. 97–106, incorporated herein by reference). They reported the anionic detergents inhibit luciferase activity, and cationic detergents and nonionic detergents increase the reaction rate when the concentration of detergent exceeds critical micelle concentration (CMC) value but only up to certain concentrations.

[3] = Specific activity of luciferase in the absence of DTT; format: biochemical, Photinus pyralis; conditions: 0 mM DTT, pH 7.8, 1 mM ATP, 500 μM D-Luciferin, three replicates
Description: Dithiothreitol (DTT) is an enzyme stabilizing agent used to reduce disulfide bonds (break the bonds) that are not normally formed under physiological conditions. Both purified wild type luciferase and CNBLuc03-06 luciferase (SEQ ID NO: 4) were diluted to 2 μg/ml in 40 mM Tris Acetate buffer at pH 7.8. The assay contained 40 mM Tris-Acetate at pH 7.8, 1 mM MgSO4, 0.1 mM EDTA, 500 μM D-Luciferin, 1 mM ATP, and 0 mM DTT. The light output was measured over time and three replicate measurements were made for each luciferase. The average value of the highest light output reading obtained over time was used to determine specific activity of each enzyme.

[4] = Stability of CNBLuc03-06 luciferase activity in the presence of HPV chemicals; format: biochemical, Photinus pyralis
Description: as §1
This effect was confirmed by repeated experiments. With 20 ng purified CNBLuc03-06 luciferase (SEQ ID NO: 4) and in the presence of 2.5% ethanol, 1 mM DTT and 86 mM chloroform an activation of approximately 50% was measured, compared with the absence of chloroform.
The capacity of a variety HPV chemicals to inhibit or activate both wild type luciferase and CNBLuc03-06 luciferase (SEQ ID NO: 4) activity compared to controls without HPV chemicals was tested. Higher concentrations of chloroform (172 mM), methylene chloride (318 mM) or toluene (2.7 mM) were used. The basic assay contained 20ng of purified CNBLuc03-06, 1 mM DTT and 2.5% ethanol. CNBLuc03-06 luciferase (SEQ ID NO: 4) was exposed to each chemical for less than 5 minutes before measuring the light output.

[5] = Luciferase activity in the presence of anionic detergent SDS; format: biochemical, Photinus pyralis; conditions: FIG. 5; 20 ng purified luciferase, 0% ethanol, 33 mM DTT
Description: as §1, §2
SDS was used for testing the effect of anionic detergents.

[6] = Thermostability (storage stability) of luciferase; format: physicochemical, Photinus pyralis; conditions: FIG. 6-8; 10 μg/ml enzyme kept at 0° C., 25° C. and 37° C.
Description: Both purified wild type luciferase and CNBLuc03-06 luciferase (SEQ ID NO: 4) were diluted to 10 μg/ml and aliquoted in three micro-centrifuge tubes for these storage stability studies conducted at different temperatures. The tubes containing wild type luciferase and CNBluc03-06 luciferase (SEQ ID NO: 4) were incubated at three different temperatures, 0° C. (FIG. 6), 25° C. (FIG. 7), and 37° C. (FIG. 8) over time. The assay contained 40 mM Tris-Acetate at pH 7.8, 1 mM MgSO4, 0.1 mM EDTA, 500 μM D-Luciferin, 1 mM ATP, 0% ethanol and 33 mM DTT. The light output was measured every 30 minutes after two initial measurements at time 0 and 10 minutes. For each measurement all the samples were diluted to 2 μg/ml so that 10 μl of each sample could be added to give 20 ng of purified enzyme in each reaction.

[7] = Luciferase activity at different pHs; format: biochemical, Photinus pyralis
Description: 20 ng of enzyme was used for each reaction. The pH was maintained at 7.8 by 40 mM Tris-acetate buffer and 33 mM DTT was added to each reaction. Both substrates, MGATP and D-Luciferin were saturated at 1 mM and 500 μM respectively. The values were normalized against the highest RLU (relative light units) at each pH optimum for comparison purpose. CNBLuc03-06 luciferase (SEQ ID NO: 4) has optimum pH of 9, but the high enough activity is retained at lower pHs in which enables us to use this mutant luciferase in case a wide range of pH is required for the assay (between 8–11).

B1: CNBLuc03-06: modified Photinus pyralis luciferase: serine to threonine at 239, aspartic acid to tyrosine at 357, alanine to threonine at 532 (protein, listed as Photinus pyralis)
chain: MEDAKNIKKGPAPFYPLEDGTAGEQLHKAMKRYALVPGTIAFTDAHIEVNITYAEYFEMSVRLAEAMKRYGLNTNHRIVVCSENSLQFFMPVLGALFIGVAVAPANDIYNERELLNSMNISQPTVVFVSKKGLQKILNVQKKLPIIQKIIIMDSKTDYQGFQSMYTFVTSHLPPGFNEYDFVPESFDRDKTIALIMNSSGSTGLPKGVALPHRTACVRFSHARDPIFGNQIIPDTAILTVVPFHHGFGMFTTLGYLICGFAVVLMYRFEEELFLRSLQDYKIQSALLVPTLFSFFAKSTLIDKYDLSNLHEIASGGAPLSKEVGEAVAKRFHLPGIRQGYGLTETTSAILITPEGDYKPGAVGKVVPFFEAKVVDLDTGKTLGVNQRGELCVRGPMIMSGYVNNPEATNALIDKDGWLHSGDIAYWDEDEHFFIVDRLKSLIKYKGYQVAPAELESILLQHPNIFDAGVAGLPDDDAGELPAAVVVLEHGKTMTEKEIVDYVASQVTTAKKFRGGVVFVDEVPKGLTGKLDTRKIREILIKAKKGGKSKL
inhibition of luciferase activity in the presence of chloroform relative to a control without chloroform [1]: not only resistant to, but also had the capacity to be activated by chloroform | effect of Triton X-100 on luciferase activity [2]: activated by the nonionic detergent, Triton X-100, up to final concentration of 1.25%; also recorded: maintained activities above the control at all concentrations of Triton X-100 | specific activity (highest light output) [3]: 9.6±0.4×10^9 RLU/mg enzyme/sec | activation compared with the absence of chloroform ([4]; 20 ng purified enzyme, 2.5% ethanol, 1 mM DTT, 86 mM chloroform): approximately 50% | activation compared to controls, chloroform ([4]; FIG. 3, chloroform 172 mM, 20 ng purified enzyme, 1 mM DTT, 2.5% ethanol): approximately 60% | activation compared to controls, methylene chloride ([4]; FIG. 3, methylene chloride 318 mM, 20 ng purified enzyme, 1 mM DTT, 2.5% ethanol): approximately 80% | activation compared to controls, toluene ([4]; FIG. 3, toluene 2.7 mM, 20 ng purified enzyme, 1 mM DTT, 2.5% ethanol): about 20% | activation compared with the absence of chloroform ([4]; cell lysates, 5% ethanol, 33 mM DTT, 0.8% chloroform): about 30% | effect of SDS on luciferase activity [5]: inhibited luciferase activity significantly; also recorded: retained much more activity at all concentrations of SDS compared to wild type luciferase | activity retained on incubation over time [6]: retained more activity than wild type luciferase | optimum pH ([7]; FIG. 9, 20 ng enzyme, 33 mM DTT, 1 mM MgATP, 500 μM D-Luciferin): 9 | activity at elevated pH ([7]; up to pH 11): high activity at elevated pH (up to pH 11)
